Results as given in US20210115100A1.

Tests used:
Test in all cases: cell-based or functional assay
[1] = target: human mature BMP7 protein variant F9 (SEQ ID NO: 8) (human) (UniProt P18075)
[2] = target: human pro-BMP7 protein variant F9 (human) (UniProt P18075)
[3] = target: wild type human mature BMP7 (SEQ ID NO: 2) (human) (UniProt P18075)
[4] = target: wild type human pro-BMP7 (human) (UniProt P18075)
Sequence of wild type human pro-BMP7 (human) (P18075 293-431, chain 1 of 2): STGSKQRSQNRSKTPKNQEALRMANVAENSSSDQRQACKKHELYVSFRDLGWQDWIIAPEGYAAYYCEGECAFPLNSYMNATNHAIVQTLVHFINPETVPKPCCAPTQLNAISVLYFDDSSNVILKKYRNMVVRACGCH
Sequence of wild type human pro-BMP7 (human) (P18075 other isoform, or with tags, fused parts or gaps, chain 2 of 2): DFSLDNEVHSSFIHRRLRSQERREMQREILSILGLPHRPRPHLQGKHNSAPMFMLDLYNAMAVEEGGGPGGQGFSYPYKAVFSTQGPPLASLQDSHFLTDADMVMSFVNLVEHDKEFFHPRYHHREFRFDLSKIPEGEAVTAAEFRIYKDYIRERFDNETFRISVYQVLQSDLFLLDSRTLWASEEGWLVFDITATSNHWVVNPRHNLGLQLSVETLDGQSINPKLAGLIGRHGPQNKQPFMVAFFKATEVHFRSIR

Sequence of wild type human mature BMP7 (SEQ ID NO: 2) (human) (P18075 293-431): as the sequence (P18075 293-431, chain 1 of 2) above
Sequence of human mature BMP7 protein variant F9 (SEQ ID NO: 8) (human) (P18075 other isoform, or with tags, fused parts or gaps mutant): as the sequence (P18075 293-431, chain 1 of 2) above, with Y65G, I86L, F93V, N110G, Y128W counted along it
Sequence of human pro-BMP7 protein variant F9 (human) (P18075 other isoform, or with tags, fused parts or gaps mutant, chain 1 of 2): as the sequence (P18075 293-431, chain 1 of 2) above, with Y65G, I86L, F93V, N110G, Y128W counted along it
Sequence of human pro-BMP7 protein variant F9 (human) (P18075 other isoform, or with tags, fused parts or gaps mutant, chain 2 of 2): as the sequence (P18075 other isoform, or with tags, fused parts or gaps, chain 2 of 2) above
Sequence of Follistatin (P19883 30-344): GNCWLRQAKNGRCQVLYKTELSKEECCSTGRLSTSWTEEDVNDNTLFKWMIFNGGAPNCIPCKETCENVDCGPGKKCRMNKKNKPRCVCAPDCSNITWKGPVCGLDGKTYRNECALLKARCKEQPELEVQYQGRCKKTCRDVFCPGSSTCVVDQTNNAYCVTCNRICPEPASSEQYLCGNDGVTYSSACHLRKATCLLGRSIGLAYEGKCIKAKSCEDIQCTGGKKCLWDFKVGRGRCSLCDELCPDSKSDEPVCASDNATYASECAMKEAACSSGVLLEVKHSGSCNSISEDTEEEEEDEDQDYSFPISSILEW

| Substance | % inhibition, 0.01X molar excess of inhibitor (hepcidin promoter luciferase, Hep3B2 HepPro luc cells) [1] | % inhibition, 0.1X molar excess of inhibitor (hepcidin promoter luciferase, Hep3B2 HepPro luc cells) [1] | % inhibition, 1X molar excess of inhibitor (hepcidin promoter luciferase, Hep3B2 HepPro luc cells) [1] | % inhibition, 10X molar excess of inhibitor (hepcidin promoter luciferase, Hep3B2 HepPro luc cells) [1] | % inhibition, 0.1X molar excess of inhibitor (hepcidin promoter luciferase, Hep3B2 HepPro luc cells) [2] | % inhibition, 1X molar excess of inhibitor (hepcidin promoter luciferase, Hep3B2 HepPro luc cells) [2] | % inhibition, 10X molar excess of inhibitor (hepcidin promoter luciferase, Hep3B2 HepPro luc cells) [2] | % inhibition, 100X molar excess of inhibitor (hepcidin promoter luciferase, Hep3B2 HepPro luc cells) [2] | % inhibition, 0.1X molar excess of inhibitor (hepcidin promoter luciferase, Hep3B2 HepPro luc cells) [3] | % inhibition, 1X molar excess of inhibitor (hepcidin promoter luciferase, Hep3B2 HepPro luc cells) [3] | % inhibition, 10X molar excess of inhibitor (hepcidin promoter luciferase, Hep3B2 HepPro luc cells) [3] | % inhibition, 100X molar excess of inhibitor (hepcidin promoter luciferase, Hep3B2 HepPro luc cells) [3] | % inhibition, 0.1X molar excess of inhibitor (hepcidin promoter luciferase, Hep3B2 HepPro luc cells) [4] | % inhibition, 1X molar excess of inhibitor (hepcidin promoter luciferase, Hep3B2 HepPro luc cells) [4] | % inhibition, 10X molar excess of inhibitor (hepcidin promoter luciferase, Hep3B2 HepPro luc cells) [4] | % inhibition, 100X molar excess of inhibitor (hepcidin promoter luciferase, Hep3B2 HepPro luc cells) [4] |
| --- | --- | --- | --- | --- | --- | --- | --- | --- | --- | --- | --- | --- | --- | --- | --- | --- |
| Chordin | 3.7% | 6.8% | 5.2% | 5.6% | -5.9% | -5.3% | -1.3% | -17.7% | -13.1% | -9.2% | 21.3% | 70.9% | -15.1% | -2.2% | 18.9% | 76.5% |
| Chordin-like 2 | -1.5% | -3.2% | -1% | 9% | 3.5% | 2.4% | 8.8% | 24.9% | -13.7% | 49% | 69.5% | 71.9% | 8.9% | 55.9% | 87.5% | 88.2% |
| Follistatin | 3.9% | 10.6% | 10% | 23.8% | -2.6% | -4.3% | 11.7% | 22.5% | -16.6% | -11.9% | 21.1% | 54.7% | -10.4% | 5.9% | 29.5% | 79.8% |
